Test results: patent publication US20240226314A1 (Sanofi, published 2024)
Read-outs that look alike come from different tables or passages of the source.

B1: cTfR expressed on 300.19 cells (SEQ ID NO: 2) (receptor)
chain: MMDQARSAFSNLFGGEPLSYTRFSLARQVDGDNSHVEMKLGVDEEENTDNNTKANGTKPKRCGGNICYGTIAVIIFFLIGFMIGYLGYCKGVEPKTECERLAGTESPAREEPEEDFPAAPRLYWDDLKRKLSEKLDTTDFTSTIKLLNENLYVPREAGSQKDENLALYIENQFREFKLSKVWRDQHFVKIQVKDSAQNSVIIVDKNGGLVYLVENPGGYVAYSKAATVTGKLVHANFGTKKDFEDLDSPVNGSIVIVRAGKITFAEKVANAESLNAIGVLIYMDQTKFPIVKADLSFFGHAHLGTGDPYTPGFPSFNHTQFPPSQSSGLPNIPVQTISRAAAEKLFGNMEGDCPSDWKTDSTCKMVTSENKSVKLTVSNVLKETKILNIFGVIKGFVEPDHYVVVGAQRDAWGPGAAKSSVGTALLLKLAQMFSDMVLKDGFQPSRSIIFASWSAGDFGSVGATEWLEGYLSSLHLKAFTYINLDKAVLGTSNFKVSASPLLYTLIEKTMQDVKHPVTGRSLYQDSNWASKVEKLTLDNAAFPFLAYSGIPAVSFCFCEDTDYPYLGTTMDTYKELVERIPELNKVARAAAEVAGQFVIKLTHDTELNLDYERYNSQLLLFLRDLNQYRADVKEMGLSLQWLYSARGDFFRATSRLTTDFRNAEKRDKFVMKKLNDRVMRVEYYFLSPYVSPKESPFRHVFWGSGSHTLSALLESLKLRRQNNSAFNETLFRNQLALATWTIQGAANALSGDVWDIDNEF
notes: Murine pre-B cell line 300.19, stably transfected with a plasmid expressing cTfR; also called cynomolgus TfR; cTfR-expressing 300.19 cells
B2: anti-TfR 531v25-Fab-LC-GAA (Fab)
heavy: QVQLVQSGAEVKKPGASVKVSCKASGYTFTRYYLNWVRQAPGQGLEWIGMIDPSVSETHYAQKFQGRATLTVDKSTSTAYMELSSLRSEDTAVYYCSQIRLPYYYAMDSWGQGTTVTVSSASTKGPSVFPLAPSSKSTSGGTAALGCLVKDYFPEPVTVSWNSGALTSGVHTFPAVLQSSGLYSLSSVVTVPSSSLGTQTYICNVNHKPSNTKVDKKVEPKSC
light: not shown
notes: Fab with human GAA fused to the C-terminus of the light chain; also called 531v25Fab-GAA
B3: anti-TfR 531v25mAb-GAA (antibody, human IgG1, kappa)
heavy 1: QVQLVQSGAEVKKPGASVKVSCKASGYTFTRYYLNWVRQAPGQGLEWIGMIDPSVSETHYAQKFQGRATLTVDKSTSTAYMELSSLRSEDTAVYYCSQIRLPYYYAMDSWGQGTTVTVSSASTKGPSVFPLAPSSKSTSGGTAALGCLVKDYFPEPVTVSWNSGALTSGVHTFPAVLQSSGLYSLSSVVTVPSSSLGTQTYICNVNHKPSNTKVDKKVEPKSCDKTHTCPPCPAPELLGGPSVFLFPPKPKDTLMISRTPEVTCVVVDVSHEDPEVKFNWYVDGVEVHNAKTKPREEQYNNASRVVSVLTVLHQDWLNGKEYKCKVSNKALPAPIEKTISKAKGQPREPQVCTLPPSRDELTKNQVSLSCAVKGFYPSDIAVEWESNGQPENNYKTTPPVLDSDGSFFLVSKLTVDKSRWQQGNVFSCSVMHEALHNRFTQKSLSLSPG
heavy 2: not shown
light: not shown
B4: 531v25 Fab (Fab, V domains shown)
VH: QVQLVQSGAEVKKPGASVKVSCKASGYTFTRYYLNWVRQAPGQGLEWIGMIDPSVSETHYAQKFQGRATLTVDKSTSTAYMELSSLRSEDTAVYYCSQIRLPYYYAMDSWGQGTTVTVSS
VL: DIQMTQSPSSLSASVGDRVTITCRASQDISSFLNWYQQKPGKAPKLLIYYTSRLQSGVPSRFSGSGSGTDYTLTISSLQPEDFATYYCQQGNTLPRTFGGGTKVEIKR
notes: The His-tag was removed with TEV protease before SPR

Legend:
[1] = target: T1, anti-TfR 531v25-Fab-FcOL-GAA; assay: flow cytometry on TfR-expressing 300.19 cells
T1 construct: Monovalent Fab-FcOL with GAA fused to the C-terminus of the Fc polypeptide
T1 sequence (chain, as listed by the source): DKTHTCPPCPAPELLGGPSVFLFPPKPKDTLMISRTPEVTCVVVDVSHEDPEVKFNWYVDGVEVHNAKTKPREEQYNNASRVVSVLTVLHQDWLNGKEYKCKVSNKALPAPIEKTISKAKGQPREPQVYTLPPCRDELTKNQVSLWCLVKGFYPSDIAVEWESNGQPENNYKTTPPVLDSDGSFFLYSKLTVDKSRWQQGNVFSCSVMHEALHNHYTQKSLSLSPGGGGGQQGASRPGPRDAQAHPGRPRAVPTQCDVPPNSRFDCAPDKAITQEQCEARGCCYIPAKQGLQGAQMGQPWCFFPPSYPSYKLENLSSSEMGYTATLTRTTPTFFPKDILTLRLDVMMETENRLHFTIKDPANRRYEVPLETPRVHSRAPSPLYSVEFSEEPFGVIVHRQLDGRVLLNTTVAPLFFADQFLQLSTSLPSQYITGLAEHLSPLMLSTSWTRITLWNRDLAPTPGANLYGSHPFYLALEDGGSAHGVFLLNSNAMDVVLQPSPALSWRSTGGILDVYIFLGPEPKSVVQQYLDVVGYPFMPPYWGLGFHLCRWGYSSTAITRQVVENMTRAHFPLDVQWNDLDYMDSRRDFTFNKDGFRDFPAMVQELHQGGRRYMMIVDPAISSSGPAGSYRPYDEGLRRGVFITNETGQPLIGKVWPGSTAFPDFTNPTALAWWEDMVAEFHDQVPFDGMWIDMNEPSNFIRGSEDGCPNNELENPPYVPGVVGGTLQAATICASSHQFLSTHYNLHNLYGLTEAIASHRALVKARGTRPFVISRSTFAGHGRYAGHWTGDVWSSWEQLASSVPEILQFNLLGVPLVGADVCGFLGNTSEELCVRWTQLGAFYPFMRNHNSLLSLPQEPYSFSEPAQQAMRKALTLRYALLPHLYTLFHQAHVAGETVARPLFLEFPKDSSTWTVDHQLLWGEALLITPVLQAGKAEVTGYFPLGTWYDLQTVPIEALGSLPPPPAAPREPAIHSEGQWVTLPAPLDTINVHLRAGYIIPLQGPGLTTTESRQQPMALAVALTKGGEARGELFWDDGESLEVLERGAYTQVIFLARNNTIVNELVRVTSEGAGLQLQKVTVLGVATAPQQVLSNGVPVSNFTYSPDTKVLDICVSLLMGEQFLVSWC

[2] = target: T2, anti-TfR 531v25-Fab-FcOL-LC-GAA (Homo sapiens (Human), UniProt P0DOX5 223-448 = IgG part); assay: flow cytometry on TfR-expressing 300.19 cells
T2 construct: Monovalent Fab-FcOL with GAA fused to the C-terminus of the light chain

[3] = target: B1; assay: flow cytometry on cTfR-expressing 300.19 cells
Description: (§1) The binding kinetics of the four anti-TfR-GAA molecules to hTfR-expressing 300.19 cells and cTfR-expressing 300.19 cells were determined by flow cytometry. 300.19 is a murine pre-B cell line, originating from a lymphoma, and was stably transfected by nucleoporation with a plasmid expressing either hTfR or cTfR (SEQ ID NO: 1 and SEQ ID NO: 2, respectively).
(§2) 300.19 TFRC-expressing cells were coated at 5×10⁵ cells/well on 96-well High Bind plate (MSD L15XB-3) and 100 μL/well of anti-TfR-GAA molecule were added and incubated for 45 min at 4° C. and washed three times with PBS 1% BSA. […] Antibody binding was evaluated after centrifugation and resuspension of cells by adding 200 μl/well PBS 1% BSA and read using Guava® easyCyte™ 8HT Flow Cytometry System.

[4] = target: T3, hTfR expressed on 300.19 cells (SEQ ID NO: 1) (human, UniProt P02786 1-760); assay: flow cytometry on hTfR-expressing 300.19 cells
T3 construct: Murine pre-B cell line 300.19, stably transfected with a plasmid expressing hTfR; also called human TfR; hTfR-expressing 300.19 cells
Description: as §1, §2

[5] = target: B1; assay: flow cytometry; EC50 on cTfR cells against EC50 on hTfR cells
Description: as §1, §2

[6] = target: T4, His-tagged cynomolgus monkey TfR ectodomain (cyTFRC_89_760; mature protein) (cynomolgus monkey (Macaca fascicularis), UniProt Q5RDH6 89-760 (Pongo abelii entry)); assay: SPR; KD on cTfR against KD on hTfR
T4 construct: also called cTfR; cTfR ectodomain
T4 chain: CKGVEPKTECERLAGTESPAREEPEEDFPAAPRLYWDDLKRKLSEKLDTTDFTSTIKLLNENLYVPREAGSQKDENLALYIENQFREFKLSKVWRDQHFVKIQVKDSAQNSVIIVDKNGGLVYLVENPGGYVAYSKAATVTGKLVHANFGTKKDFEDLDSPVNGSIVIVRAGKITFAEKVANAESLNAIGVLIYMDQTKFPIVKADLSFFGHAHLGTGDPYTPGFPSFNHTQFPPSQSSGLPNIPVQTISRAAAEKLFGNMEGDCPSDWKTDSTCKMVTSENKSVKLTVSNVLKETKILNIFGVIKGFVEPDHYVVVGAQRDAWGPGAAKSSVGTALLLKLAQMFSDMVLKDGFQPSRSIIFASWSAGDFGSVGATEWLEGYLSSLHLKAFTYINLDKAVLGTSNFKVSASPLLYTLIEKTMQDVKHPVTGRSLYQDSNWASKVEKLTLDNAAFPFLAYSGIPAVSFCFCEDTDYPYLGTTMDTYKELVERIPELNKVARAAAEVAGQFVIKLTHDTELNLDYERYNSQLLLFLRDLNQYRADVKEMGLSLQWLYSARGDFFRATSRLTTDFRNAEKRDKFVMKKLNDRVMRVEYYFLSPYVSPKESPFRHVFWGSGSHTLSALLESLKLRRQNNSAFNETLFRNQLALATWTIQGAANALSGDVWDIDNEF
Description: (§3) Binding of the humanized Fab variants to human, cynomolgus and mouse TfR was assessed using SPR at pH 7.4. Experiments were run on a Bruker MASS-2 instrument with HBS-EP+ as running buffer and sample diluent (Cytiva Life Sciences, #BR100826). HCA sensor chips (Bruker, #1862614) were immobilized with anti-His antibody (His capture kit, Cytiva Life Sciences, #28995056) following manufacturer's instructions. About 10,000 RU of anti-His was obtained. His-tagged hTfR ectodomain (SEQ ID NO: 39), cTfR ectodomain (SEQ ID NO: 40) or mouse TfR ectodomain (SEQ ID NO: 41) (5 μg/ml) was captured for 1 min at 10 μL/min. Concentration series of the humanized Fab variants were then injected for 4 min at 30 μL/min over hTfR surfaces and dissociation was monitored for 5 min. Surface was regenerated with one 1 min pulse of 10 mM glycine-HCl at pH 1.5.

[7] = target: T4, His-tagged cynomolgus monkey TfR …; assay: SPR; KD on cTfR against KD on hTfR
Description: as §3

[8] = target: His-tagged mouse TfR ectodomain (mTFRC_89_764; mature protein) (mouse, UniProt Q62351 89-763); assay: SPR, His-tagged mTfR ectodomain captured on anti-His
His-tagged mouse TfR ectodomain (mTFRC_89_764; mature protein), sequence (Q62351 other isoform, or with tags, fused parts or gaps): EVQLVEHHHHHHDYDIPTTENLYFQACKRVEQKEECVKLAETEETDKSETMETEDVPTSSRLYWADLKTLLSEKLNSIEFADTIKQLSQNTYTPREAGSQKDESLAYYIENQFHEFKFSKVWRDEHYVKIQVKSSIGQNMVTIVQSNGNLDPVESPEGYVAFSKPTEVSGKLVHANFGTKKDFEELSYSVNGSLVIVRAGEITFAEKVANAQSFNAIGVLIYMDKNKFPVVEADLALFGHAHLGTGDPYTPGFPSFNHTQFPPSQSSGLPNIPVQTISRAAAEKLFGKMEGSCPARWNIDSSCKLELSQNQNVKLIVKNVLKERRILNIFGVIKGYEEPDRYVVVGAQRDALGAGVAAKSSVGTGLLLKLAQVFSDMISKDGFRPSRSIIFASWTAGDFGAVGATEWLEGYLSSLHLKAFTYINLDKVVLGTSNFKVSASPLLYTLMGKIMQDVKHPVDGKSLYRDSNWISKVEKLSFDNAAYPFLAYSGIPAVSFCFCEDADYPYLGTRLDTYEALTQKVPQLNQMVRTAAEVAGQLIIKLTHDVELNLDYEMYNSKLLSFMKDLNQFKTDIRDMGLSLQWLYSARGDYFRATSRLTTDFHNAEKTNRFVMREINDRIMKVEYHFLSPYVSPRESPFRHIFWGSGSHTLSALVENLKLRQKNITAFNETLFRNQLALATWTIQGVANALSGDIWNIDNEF
Description: as §3

[9] = target: T5, His-tagged human TfR ectodomain (hTFRC_89-760_G142S; mature protein) (human, UniProt P02786 89-760); assay: SPR, His-tagged TfR ectodomain captured on anti-His, 1:1 fit
T5 construct: It carries the G142S haplotype; also called hTfR ectodomain
Description: as §3

[10] = target: T4, His-tagged cynomolgus monkey TfR …; assay: as above
Description: as §3

[11] = target: T5, His-tagged human TfR ectodomain …; assay: as above; remark: listed apart in the source
Description: as §3

[12] = target: T4, His-tagged cynomolgus monkey TfR …; assay: as above
Description: as §3

B1: binds [1]; binds [2].

For B2, the EC50 [3] was 74.6 nM, the EC50 [4] was 9.9 nM and the “Cynomolgus/human ratio (TfR)” value [5] was 7.5.

In the case of B3, the EC50 [3] is reported as 2.6 nM, the EC50 [4] is reported as 2.7 nM and the “Cynomolgus/human ratio (TfR)” value [5] is reported as 1.

With B4 the “Cynomolgus/human KD ratio” value [6] was 12.5, the “Cynomolgus/human KD ratio” value [7] was 12.4 and the binding result [8] was “no binding”. For the same binder, the Kd [9] was 4.45 nM, the Kd [10] was 55.8 nM and the Kd [11] was 4.5 nM. For the same binder, the Kd [12] was 55.8 nM.
